Results reported in article PMC4932549, “Feasibility of Multiple Examinations Using ^68Ga-Labelled Collagelin Analogues: Organ Distribution in Rat for Extrapolation to Human Organ and Whole-Body Radiation Dosimetry” (Pharmaceuticals, 2016).
Positions of bridges follow the written chain, without caps; N, C: chain ends. Residues, ends and D or L forms follow the SMILES beside them. *: point of attachment. NODAGA = O=C(O)CN1CCN(CC(=O)O)CCN(C(CCC(=O)*)C(=O)O)CC1; NOTA = O=C(O)CN1CCN(CC(=O)O)CCN(CC(=O)*)CC1; AEEA = NCCOCCOCC(=O)O

Tests used:
[1] = rat, in vivo, iv
Description: [^68Ga]Ga-NO2A-Col or [^68Ga]Ga-NODAGA-Col was injected into the tail vein of rats as a bolus with 500 µL phosphate-buffered saline (pH 7.4) as the vehicle (Table 1). The injected amount of the peptides was 0.8 ± 0.2 nanomoles. The animals were euthanized by a CO2–O2 mixture at 5, 10, 20, 40, 60 and 120 min post-injection. The radioactivity of the excised organs was measured in a well-type NaI(Tl) scintillation counter, applying correction for dead-time and radioactivity decay. The weight of the tissues was determined simultaneously. The remaining carcass was also measured in order to monitor the radioactivity elimination and recovery. Samples from blood, heart, lung, liver, spleen, adrenal glands, kidneys, intestines, with or without contents, muscle, testis, bone, brain, pancreas, urine bladder and bone marrow were collected. The radioactivity readings were decay-corrected to the time of the injection, and the results were expressed as standardized uptake values (SUV; Equation (1)), where the radioactivity of an organ and injected radioactivity was expressed in MBq, and the weight of a rat and organ was expressed in g. (1) SUV=Radioactivityorgan×weightrat/Radioactivityinjected×weightorgan […]

[2] = parameters: species or system human; settings: in vivo
Description: Human organ and total body absorbed and effective dose estimates were calculated according to the Medical Internal Radionuclide Dose (MIRD) procedure using the measured residence times and the dose rate S-values. The SUV values in rat were first multiplied with the appropriate radioactivity decay factor dependent on the time point of the data post-injection, then multiplied by standard organ masses and divided by the standard total-body weight for the standard adult man phantom obtained from the OLINDA/EXM 1.1 software (Organ Level Internal Dose Assessment Code, Vanderbilt University, Nashville, TN, USA, 2007). The values obtained correspond to the fraction of injected radioactivity (%IA) per organ in man as a function of time (Equation (2), where SUVA is the SUVs of rat organs; gorgan and kgTBweight are respectively the standard organ weight and standard total body weight of a human). (2) (%IAOrgan)human=SUVA×(gorgan/kgTBweight)human
The cumulative radioactivity for the organs was determined by integrating the area under the time-radioactivity curves for each organ using trapezoidal approximation of the collected kinetic data, followed by extrapolation of remaining points from the last time point to infinity by a single exponential fit. The residence time for each organ is equal to the number of disintegrations (MBq × h/MBq). Bone marrow residence time was assessed according to the bone marrow blood model. The residence time for the remaining carcass was calculated in the same way as for the other organs, and this value was used as input in the OLINDA software as “remainder”. The “remainder” of the body residence time was calculated from SUV due to radioactivity measured in the rest of the body after the removal of the source organs and tail. The difference between the theoretical residence time and the calculated residence time of the source organs plus the remainder of the body was assumed to have been in the tail or excreted. The kidney absorbed dose was calculated based on a multi-region kidney model phantom. The total target organ absorbed dose (D) is contributed by all source organs and is expressed by Equation (3), where Ã is the time-integrated radioactivity in the source tissue (rS) and S is the radionuclide-specific dose rate values: (3) D(rT,t)=∑rSÃ(rS,t)×S(rT←rS,t)
The similarity of the biodistribution pattern in human and rat and the homogeneous distribution of radioactivity throughout the organ were two basic assumptions considered when extrapolating rat biodistribution data to the human species for the calculation of the absorbed and total effective doses. The organ distribution study was conducted for 120 min. The residence time was determined using the trapezoidal rule, wherein the area from the injection time to the termination time was calculated. […] The values were higher for male animals. This is because the residence time is integrated over the entire tissue using the standardized human dosimetry model of organ volumes, where in the human male model, the muscle volume is around 1.65-times higher than that in the female model (28 vs. 17 kg), and the male model blood volume (5.5 L) is almost 1.5 larger than in the female model (3.8 L). The other tissues are also larger in the male model, but to a lesser extent. During the calculation of the absorbed dose in each tissue (mSv/MBq) by OLINDA, the values are again divided with each tissue’s volume, providing final dose values.
Absorbed doses and total effective doses were calculated using residence time values as the input into OLINDA/EXM 1.1, the MIRD scheme of an adult (70 kg) and recommended tissue weighting factors from the International Commission on Radiological Protection (ICRP, 2007). The absorbed doses (mGy/MBq) and total effective doses (mSv/MBq) obtained from OLINDA/EXM 1.1 calculations are presented in Table 2. […]

in vivo = settings: rat; for SUV / SUV at 2 h: both sexes, Sprague-Dawley, total radioactivity; for SUV / SUV at 2 h / Uptake in most of the organs (SUV): iv; for SUV at 2 h: Uptake within 120 min in blood, heart, lung, pancreas, adrenal gland, small intestine, large intestine, testis, muscle and brain (SUV)
Description: Animal studies were performed using healthy female and male Sprague–Dawley rats: one male and one female animal per time point and tracer (Table 1). The animal experiments were approved by the local Ethics Committee for Animal Research and performed in accordance with local institutional and Swedish national rules and regulations. The animals were kept at a constant temperature (20 °C) and humidity (50%) in a 12-h light-dark cycle and given free access to food and water.
[^68Ga]Ga-NO2A-Col or [^68Ga]Ga-NODAGA-Col was injected into the tail vein of rats as a bolus with 500 µL phosphate-buffered saline (pH 7.4) as the vehicle (Table 1). The injected amount of the peptides was 0.8 ± 0.2 nanomoles. The animals were euthanized by a CO2–O2 mixture at 5, 10, 20, 40, 60 and 120 min post-injection. The radioactivity of the excised organs was measured in a well-type NaI(Tl) scintillation counter, applying correction for dead-time and radioactivity decay. The weight of the tissues was determined simultaneously. The remaining carcass was also measured in order to monitor the radioactivity elimination and recovery. Samples from blood, heart, lung, liver, spleen, adrenal glands, kidneys, intestines, with or without contents, muscle, testis, bone, brain, pancreas, urine bladder and bone marrow were collected. The radioactivity readings were decay-corrected to the time of the injection, and the results were expressed as standardized uptake values (SUV; Equation (1)), where the radioactivity of an organ and injected radioactivity was expressed in MBq, and the weight of a rat and organ was expressed in g. (1) SUV=Radioactivityorgan×weightrat/Radioactivityinjected×weightorgan

[3] = Uptake in most of the vital organs, including heart and lung (SUV)
[4] = Uptake in small and large intestines (SUV)

| Compound | Share of radioactivity accounted for by the single exponential blood clearance phase [1] | Effective dose per administration [2] | Estimated absorbed dose, Breasts [2] | Estimated absorbed dose, Uterus [2] | Highest organ absorbed dose (kidneys) [2] | Kidney absorbed dose as share of maximum allowed dose of 50 mGy to a single organ [2] | PET examinations per year before reaching the red marrow limiting dose [2] | Radioactivity before reaching the red marrow limiting dose [2] | Radioactivity that could be administered per year if limited by kidney dose [2] | Total dose per examination (PET plus CT) [2] | SUV (in vivo; Kidney uptake (SUV)) | SUV (in vivo; [3]) | SUV (in vivo; [4]) | SUV (in vivo; Uptake in the brain (SUV)) | SUV at 2 h (in vivo) | Uptake in most of the organs (SUV) (in vivo) | further results |
| --- | --- | --- | --- | --- | --- | --- | --- | --- | --- | --- | --- | --- | --- | --- | --- | --- | --- |
| CSCC[C@@H]1NC(=O)[C@H](C(C)C)NC(=O)[C@H](CCCNC(=N)N)NC(=O)CNC(=O)[C@@H]2CCCN2C(=O)[C@@H](NC(=O)COCCOCCNC(=O)CN2CCN(CC(=O)O)CCN(CC(=O)O)CC2)CSSC[C@@H](C(=O)O)NC(=O)[C@@H]2CCCN2C(=O)CNC(=O)[C@H](CCC(=O)O)NC(=O)[C@H](CC(=O)O)NC(=O)[C@H](CC(=O)O)NC(=O)CNC(=O)[C@H](CC(C)C)NC(=O)[C@H](Cc2c[nH]cn2)NC(=O)[C@H](CC(C)C)NC(=O)CNC(=O)[C@H](Cc2c[nH]cn2)NC1=O [[^68Ga]Ga-NO2A-Col, metal not drawn] ({NOTA-AEEA}-CPGRVMHGLHLGDDEGPC-OH; disulfide 1-18) | over 98% | 0.78–1.64 mSv | 0.016 mGy/MBq | 0.019 mGy/MBq | 0.1 mGy/MBq | about 20% | over 1000 | over 200 GBq | over 1460 MBq | 1.78–2.64 | > 10 SUV | < 0.5 SUV | < 0.1 SUV | < 0.01 SUV | < 0.1 SUV | below one | Absorbed dose in liver and spleen relative to [^68Ga]Ga-NODAGA-Col [2]: two-fold lower; Estimated absorbed dose, Adrenals [2]: 0.009 mGy/MBq |
| CSCC[C@@H]1NC(=O)[C@H](C(C)C)NC(=O)[C@H](CCCNC(=N)N)NC(=O)CNC(=O)[C@@H]2CCCN2C(=O)[C@@H](NC(=O)COCCOCCNC(=O)CCC(C(=O)O)N2CCN(CC(=O)O)CCN(CC(=O)O)CC2)CSSC[C@@H](C(=O)O)NC(=O)[C@@H]2CCCN2C(=O)CNC(=O)[C@H](CCC(=O)O)NC(=O)[C@H](CC(=O)O)NC(=O)[C@H](CC(=O)O)NC(=O)CNC(=O)[C@H](CC(C)C)NC(=O)[C@H](Cc2c[nH]cn2)NC(=O)[C@H](CC(C)C)NC(=O)CNC(=O)[C@H](Cc2c[nH]cn2)NC1=O (some centres unmarked) [[^68Ga]Ga-NODAGA-Col, metal not drawn] ({NODAGA-AEEA}-CPGRVMHGLHLGDDEGPC-OH; disulfide 1-18) | over 98% | 0.78–1.64 mSv | 0.016 mGy/MBq | 0.019 mGy/MBq | 0.1 mGy/MBq | ~21% | over 1000 | over 200 GBq | over 1460 MBq | 1.78–2.64 | > 10 SUV | < 0.5 SUV | < 0.1 SUV | < 0.01 SUV | < 0.1 SUV | below one | Estimated absorbed dose, Brain [2]: 0.002 mGy/MBq; Estimated absorbed dose, Spleen [2]: 0.011 mGy/MBq; Increase of liver residence time/absorbed dose versus [^68Ga]Ga-NO2A-Col [2]: 100%; Radioactivity that stayed in liver and spleen (in vivo): Over 85% |
